# T1: mouse MAdCAM expressed on cells (mouse, UniProt Q61826 22-405)
# T1 construct: whole, on cells
# T1 sequence (looked up): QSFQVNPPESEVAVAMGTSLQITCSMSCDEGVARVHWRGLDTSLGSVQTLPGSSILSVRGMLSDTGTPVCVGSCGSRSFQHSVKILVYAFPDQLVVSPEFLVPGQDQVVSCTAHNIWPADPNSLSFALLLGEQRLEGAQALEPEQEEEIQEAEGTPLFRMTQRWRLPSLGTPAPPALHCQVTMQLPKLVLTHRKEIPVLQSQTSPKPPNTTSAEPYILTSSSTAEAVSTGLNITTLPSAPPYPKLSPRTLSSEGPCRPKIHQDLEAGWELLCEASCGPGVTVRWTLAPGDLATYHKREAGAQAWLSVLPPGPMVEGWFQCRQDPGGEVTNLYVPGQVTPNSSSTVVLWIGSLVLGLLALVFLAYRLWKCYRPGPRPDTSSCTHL
# T2: human MAdCAM expressed on cells (human, UniProt Q13477 19-382)
# T2 construct: whole, on cells; also called MADCAM1
# T2 sequence (looked up): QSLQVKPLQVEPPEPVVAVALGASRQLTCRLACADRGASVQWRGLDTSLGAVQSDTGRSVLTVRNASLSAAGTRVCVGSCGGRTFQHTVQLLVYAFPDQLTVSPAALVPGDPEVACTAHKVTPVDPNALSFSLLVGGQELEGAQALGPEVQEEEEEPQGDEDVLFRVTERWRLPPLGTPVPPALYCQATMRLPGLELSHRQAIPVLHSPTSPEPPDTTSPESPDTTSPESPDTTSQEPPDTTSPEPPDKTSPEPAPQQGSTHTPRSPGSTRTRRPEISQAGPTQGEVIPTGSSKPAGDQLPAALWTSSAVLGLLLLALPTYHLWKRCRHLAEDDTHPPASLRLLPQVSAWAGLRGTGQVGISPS
# What was measured:
# [1] = molecular target: T1, mouse MAdCAM expressed on cells; assay: cell binding
# [2] = molecular target: T2, human MAdCAM expressed on cells; assay: cell binding
Binder,binding result [1],binding result [2]
MAdCAM Antibody Table 1 Clone 28 (scFv) scFv: QVQLVQSGAEVKKPGASVKVSCKASGYTFTDYFLHWVRQAPGQGLEWMGWMNPTSGNTGYAQKFQGRVTMTRDTSTSTVYMELSSLRSEDTAVYYCAREGEGSGFDYWGQGTLVTVSSGGGGSGGGGSGGGGSGGGGSDIQMTQSPSSLSASVGDRVTITCRASQGINSWLAWYQQKPGKAPKLLIYDASNLETGVPSRFSGSGSGTDFTLTISSLQPEDFATYYCQQSYSTPLTFGGGTKVEIK,no binding,binds
MAdCAM Antibody Table 1 Clone 31 (scFv) scFv: QVQLVQSGAEVKKPGASVKVSCKASGYTFTSYYMHWVRQAPGQGLEWMGIINPSGGSTSYAQKFQGRVTMTRDTSTSTVYMELSSLRSEDTAVYYCARDTGYSYGRYYYYGMDVWGQGTLVTVSSGGGGSGGGGSGGGGSGGGGSDIQMTQSPSSLSASVGDRVTITCRASQSIGRWLAWYQQKPGKAPKLLIYDASNLQSGVPSRFSGSGSGTDFTLTISSLQPEDFATYYCQQSYSIPITFGQGTKVEIK,no binding,binds
MAdCAM Antibody Table 1 Clone 36 (scFv) scFv: QVQLVQSGAEVKKPGASVKVSCKASGYTFTGHYMHWVRQAPGQGLEWMGIINPSGGSTSYAQKFQGRVTMTRDTSTSTVYMELSSLRSEDTAVYYCARDTGYSYGRYYYYGMDVWGQGTTVTVSSGGGGSGGGGSGGGGSGGGGSDIQMTQSPSSLSASVGDRVTITCRASQSIGRWLAWYQQKPGKAPKLLIYDASNLQSGVPSRFSGSGSGTDFTLTISSLQPEDFATYYCQQSYSIPITFGGGTKVEIK,no binding,binds
MAdCAM Antibody Table 1 Clone 27 (scFv) scFv: QVQLVQSGAEVKKPGASVKVSCKASGYTFTGYYIHWVRQAPGQGLEWMGWMNPNSGNTGYAQKFQGRVTMTRDTSTSTVYMELSSLRSEDTAVYYCARDPGFLGYCSGGSCYDGWFDPWGQGTLVTVSSGGGGSGGGGSGGGGSGGGGSDIQMTQSPSSLSASVGDRVTITCRASQSISSYLHWYQQKPGKAPKLLIYAASSLQSGVPSRFSGSGSGTDFTLTISSLQPEDFATYYCQQSYTAPYTFGQGTKLEIK,no binding,binds
MAdCAM Antibody Table 1 Clone 35 (scFv) scFv: EVQLLESGGGLVQPGGSLRLSCAASGFSFSSYTMNWVRQAPGKGLEWVSFITSSSRTIYYADSVKGRFTISRDNSKNTLYLQMNSLRAEDTAVYYCARDRRGDYGDSWYFDLWGRGTLVTVSSGGGGSGGGGSGGGGSGGGGSEIVMTQSPATLSVSPGERATLSCRASQSVRNYLAWYQQKPGQAPRLLIYGASTRATGIPARFSGSGSGTEFTLTISSLQSEDFAVYYCQQYGSSPLTFGGGTKVEIK,no binding,binds
MAdCAM Antibody Table 1 Clone 32 (scFv) scFv: QVQLVQSGAEVKKPGASVKVSCKASGYTLTDYYMHWVRQAPGQGLEWMGIINPSGGSTSYAQKFQGRVTMTRDTSTSTVYMELSSLRSEDTAVYYCAREEYSSSSGYFDYWGQGTLVTVSSGGGGSGGGGSGGGGSGGGGSDIQMTQSPSSLSASVGDRVTITCRASQGISSWLAWYQQKPGKAPKLLIYAASSLQSGVPSRFSGSGSGTDFTLTISSLQPEDFATYYCQQSYSTPLTFGQGTKVEIK,no binding,binds
MAdCAM Antibody Table 1 Clone 38 (scFv) scFv: EVQLLESGGGLVQPGGSLRLSCAASGFTFGSYSMSWVRQAPGKGLEWVSAIGTGGGTYYADSVKGRFTISRDNSKNTLYLQMNSLRAEDTAVYYCAKGTPYYYYYGMDVWGQGTMVTVSSGGGGSGGGGSGGGGSGGGGSDIQMTQSPSSLSASVGDRVTITCRASQPLSNWLAWYQQKPGKAPKLLIYAASSLQSGVPSRFSGSGSGTDFTLTISSLQPEDFATYYCQQAISFPLTFGGGTKVEIK,no binding,binds
MAdCAM Antibody Table 1 Clone 29 (scFv) scFv: QVQLVQSGAEVKKPGASVKVSCKASGYTFTSYYMHWVRQAPGQGLEWMAWMNPNSGNTGYAQKFQGRVTMTRDTSTSTVYMELSSLRSEDTAVYYCARDYDFWSGSLGYWGQGTLVTVSSGGGGSGGGGSGGGGSGGGGSDIQMTQSPSSLSASVGDRVTITCRASQGISNYLAWYQQKPGKAPKLLIYAASSLQSGVPSRFSGSGSGTDFTLTISSLQPEDFATYYCQQSYSTPWTFGQGTKVEIK,no binding,binds
MAdCAM Antibody Table 1 Clone 37 (scFv) scFv: QVQLVQSGAEVKKPGASVKVSCKASGYTFSKHFVHWVRQAPGQGLEWMGWMNPNSGNSGYAQKFQGRVTMTRDTSTSTVYMELSSLRSEDTAVYYCARGEGGYYYYGMDVWGQGTLVTVSSGGGGSGGGGSGGGGSGGGGSDIQMTQSPSSLSASVGDRVTITCRASQSISSWLAWYQQKPGKAPKLLIYAASTLQSGVPSRFSGSGSGTDFTLTISSLQPEDFATYYCQQSYSTPWTFGQGTKVEIK,no binding,binds
MAdCAM Antibody Table 1 Clone 40 (scFv) scFv: QVQLVQSGAEVKKPGASVKVSCKASGYTFTSYGISWVRQAPGQGLEWMGIINPRGGSTIFAQKFQGRVTMTRDTSTSTVYMELSSLRSEDTAVYYCARGTRSSGWYGWFDPWGQGTLVTVSSGGGGSGGGGSGGGGSGGGGSDIQMTQSPSSLSASVGDRVTITCRASQGIGNWLAWYQQKPGKAPKLLIYAASNLETGVPSRFSGSGSGTDFTLTISSLQPEDFATYYCQQIHSYPLTFGGGTKVEIK,no binding,binds
MAdCAM Antibody Table 1 Clone 33 (scFv) scFv: QVQLVQSGAEVKKPGASVKVSCKASGYTFTSYGISWVRQAPGQGLEWMGWMHPKSGDTGLTQKFQGRVTMTRDTSTSTVYMELSSLRSEDTAVYYCARDTPYYYYGMDVWGQGTTVTVSSGGGGSGGGGSGGGGSGGGGSDIQMTQSPSSLSASVGDRVTITCRASQSISSWLAWYQQKPGKAPKLLIYAASSLQSGVPSRFSGSGSGTDFTLTISSLQPEDFATYYCQQSYSVPITFGQGTKVEIK,no binding,binds
MAdCAM Antibody Table 1 Clone 39 (scFv) scFv: QVQLVQSGAEVKKPGASVKVSCKASGYTFTSYYMHWVRQAPGQGLEWMGWMNPNSGNTGYAQKFQGRVTMTRDTSTSTVYMELSSLRSEDTAVYYCARDLGYYDSSGYFGAFDIWGQGTTVTVSSGGGGSGGGGSGGGGSGGGGSDIQMTQSPSSLSASVGDRVTITCQSSEDISSSLNWYQQKPGKAPKLLIYAASSLQIGVPSRFSGSGSGTDFTLTISSLQPEDFATYYCQQTYSTPYTFGQGTKVEIK,no binding,binds
MAdCAM Antibody Table 1 Clone 26 (scFv) scFv: QVQLVQSGAEVKKPGASVKVSCKASGYTLTTWYMYWVRQAPGQGLEWMGWINPNRGATNYAQKFQGRVTMTRDTSTSTVYMELSSLRSEDTAVYYCAKGDLWGAMDVWGQGTTVTVSSGGGGSGGGGSGGGGSGGGGSDIQMTQSPSSLSASVGDRVTITCRASDNIGSWLAWYQQKPGKAPKLLIYAASSLQSGVPSRFSGSGSGTDFTLTISSLQPEDFATYYCQQGYSTPPTFGQGTKVEIK,no binding,binds
MAdCAM Antibody Table 1 Clone 43 (scFv) scFv: EVQLLESGGGLVQPGGSLRLSCAASGFTFDDFAMHWVRQAPGKGLEWVSGISGNGDSRYYADSVKGRFTISRDNSKNTLYLQMNSLRAEDTAVYYCARDASYGGNYGMDVWGQGTTVTVSSGGGGSGGGGSGGGGSGGGGSDIQMTQSPSSLSASVGDRVTITCQASQDIRNYLNWYQQKPGKAPKLLIYKASTLESGVPSRFSGSGSGTDFTLTISSLQPEDFATYYCQQANSFPLTFGPGTKVDIK,no binding,binds
MAdCAM Antibody Table 1 Clone 56 (scFv) scFv: EVQLLESGGGLVQPGGSLRLSCAASGFTFDDYAMHWVRQAPGKGLEWVSAISGGGEDTYYADSVKGRFTISRDNSKNTLYLQMNSLRAEDTAVYYCARDASYGGNYGMDVWGQGTTVTVSSGGGGSGGGGSGGGGSGGGGSDIQMTQSPSSLSASVGDRVTITCQASQDIRNYLNWYQQKPGKAPKLLIYKASSLESGVPSRFSGSGSGTDFTLTISSLQPEDFATYYCQQANSYPVTFGGGTKVEIK,no binding,binds
MAdCAM Antibody Table 1 Clone 42 (scFv) scFv: QVQLVQSGAEVKKPGSSVKVSCKASGGTLSRYGVSWVRQAPGQGLEWMGGIIPIFGTTNYAQKFQGRVTITADESTSTAYMELSSLRSEDTAVYYCARDRVYYDSSGYPTWYFDLWGRGTLVTVSSGGGGSGGGGSGGGGSGGGGSEIVMTQSPATLSVSPGERATLSCRASQSVSSSYLAWYQQKPGQAPRLLIYGASTRATGIPARFSGSGSGTEFTLTISSLQSEDFAVYYCQQYGSSPITFGQGTKVEIK,no binding,binds

# — patent US20210206856A1 (PANDION OPERATIONS, published 2021)
